In patent US20200148768A1 (STCUBE, published 2020):

T1: mouse BTN1A1-ECD-Fc (mouse; human, UniProt Q62556 27-247)
T1 construct: also called human IgG1-Fc-tagged mouse BTN1A1-ECD (dimer); mBTN1A1-Fc
T1 chain: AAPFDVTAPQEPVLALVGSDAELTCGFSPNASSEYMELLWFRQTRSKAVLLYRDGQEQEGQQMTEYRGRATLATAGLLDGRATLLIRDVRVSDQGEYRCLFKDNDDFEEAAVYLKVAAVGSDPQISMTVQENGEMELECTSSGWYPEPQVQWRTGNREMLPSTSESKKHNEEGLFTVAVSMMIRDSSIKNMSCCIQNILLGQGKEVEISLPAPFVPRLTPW

T2: human BTN1A1 wild type, expressed on cells (human, UniProt Q13410 27-526, glycosylated at N55 and N215 (extracellular))
T2 construct: also as whole-cell lysate in western blots; also called BTN1A1 WT
T2 sequence: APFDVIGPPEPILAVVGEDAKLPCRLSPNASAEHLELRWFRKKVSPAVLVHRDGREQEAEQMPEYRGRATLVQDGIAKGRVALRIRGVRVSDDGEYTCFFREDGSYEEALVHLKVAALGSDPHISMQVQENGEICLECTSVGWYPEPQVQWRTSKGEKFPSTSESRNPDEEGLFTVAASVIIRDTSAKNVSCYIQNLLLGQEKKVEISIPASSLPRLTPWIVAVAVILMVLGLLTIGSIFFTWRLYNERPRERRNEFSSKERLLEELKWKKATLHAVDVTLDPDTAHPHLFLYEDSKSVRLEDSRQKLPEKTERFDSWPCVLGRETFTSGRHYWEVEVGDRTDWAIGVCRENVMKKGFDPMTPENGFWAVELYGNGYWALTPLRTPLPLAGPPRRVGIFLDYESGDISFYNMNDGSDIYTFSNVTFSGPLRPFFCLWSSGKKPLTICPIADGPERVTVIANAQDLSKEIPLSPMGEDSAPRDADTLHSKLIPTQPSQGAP

T3: human BTN1A1-ECD-His6 (human, UniProt Q13410 27-242, N-glycosylated (PNGase F sensitive))
T3 construct: also called BTN1A1-His; hBTN1A1-His
T3 sequence: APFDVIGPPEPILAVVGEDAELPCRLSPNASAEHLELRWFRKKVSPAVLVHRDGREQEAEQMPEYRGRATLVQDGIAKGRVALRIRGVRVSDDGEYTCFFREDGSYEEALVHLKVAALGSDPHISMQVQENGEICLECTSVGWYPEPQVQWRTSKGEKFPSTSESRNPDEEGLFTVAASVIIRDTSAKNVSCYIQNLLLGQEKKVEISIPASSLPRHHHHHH


How the values were obtained:
mouse BTN1A1-ECD-Fc = target: T1, mouse BTN1A1-ECD-Fc; assay: SPR (Biacore X-100), antibody captured on chip, mouse BTN1A1-ECD-Fc 2-64 nM
Method: The binding affinity between BTN1A1 and monoclonal anti-BTN1A1 antibodies STC1011, STC1012, and STC1029 was measured by Surface Plasmon Resonance (BIAcore™). Sensorgrams and saturation curves of antibody titrations of with human IgG1-Fc-tagged mouse BTN1A1-ECD (dimer) were recorded.
An Protein capture chip (BIAcore™) was coated with STC1011, STC1012, STC1029, or a control IgG1 antibody. No interaction between the IgG1 control and mouse BTN1A1-His was observed. Mouse BTN1A1-ECD-Fc was injected into the microfluidic channel on a Biacore™ X-100 instrument. KD values were obtained using fitting tools of the BIAevaluation software (BIAcore). FIGS. 29A-C provide sensograms showing real-time binding of dimeric BTN1A1-ECD-Fc (2-64 nM with 2-fold dilution) to immobilized STC1011, STC1012, and STC1029.

human BTN1A1-ECD-Fc [1] = target: T4, human BTN1A1-ECD-Fc (human, N-glycosylated (PNGase F sensitive)); assay: direct ELISA, coated BTN1A1-Fc, native Ag
T4 construct: also called BTN1A1-Fc; hBTN1A1-Fc
Method: In order to exclude the possibility that the observed binding was due to human Fc binding, ELISA was performed using human BTN1A1-Fc and human IgG1 control. The antigens BTN1A1-Fc and human IgG1 were coated onto ELISA plate. Antibodies were added to each well and binding was for each antibody determined by standard direct ELISA against the antigens. Human IgG1 binding antibodies were excluded from the candidates.

[2] = target: T2, human BTN1A1 wild type, expressed on …; assay: FACS, HEK293T overexpressing BTN1A1, FITC secondary
Method: To identify anti-BTN1A1-Fc MAbs that were specific for and which preferentially bound human BTN1A1-Fc antigen, different types of assays were performed. In a screening assay to detect preferential binding of MAbs to BTN1A1, antibody binding was determined based on the measurement of fluorescence intensity through FACS analysis (using cell membrane bound proteins). By way of example, the assay was performed using the HEK293T human embryonic kidney cell line. Illustratively, HEK293T cells overexpressing BTN1A1 were incubated with anti-BTN1A1 antibodies existing in hybridoma culture supernatant. After washing, secondary antibodies conjugated with FITC were added as detection agent. Fluorescence intensity (measured fluorescence intensity, MFI) was measured via FACS I flow cytometry analysis to assess the relative binding of the anti-BTN1A1 antibodies to membrane bound BTN1A1 WT on cells. […] Based on the binding analysis, sixty seven candidate MAb-producing hybridomas were selected, grown in ADCF medium, and their supernatant containing monoclonal antibody was concentrated and purified.

human BTN1A1-ECD-Fc [3] = target: T4, human BTN1A1-ECD-Fc; assay: Octet BLI, anti-mouse Fc capture
Method: Using a biosensor coated with anti-mouse Fc capture antibody, KD was determined by Kon and Koff. Antibodies with higher affinity (nanomolar range) were selected. Epitope binning is also used to categorize the epitope binding characteristics of panels of antibodies against a single target. This epitope binning experiment was designed to determine whether two different antibodies bind to the same epitope. If two antibodies bind to the same epitope of the antigen, then the binding of the first antibody will preclude the binding if the second antibody. If each antibody in a tested pair binds to a completely independent epitope, then binding of the first antibody will have no effect on the binding of the second. Through repeated testing, the antibodies are grouped according to epitope binding specificity. This experiment was performed using the Octet Red96 System (Pall ForteBio) with Bio-Layer Interferometry (BLI) to detect and analyze the interaction of biological molecules. Antigen was bound to the disposable sensors, then additional binding of antibody to the antigen was measured by change in delay of the reflection of the light passing through the sensor. A longer delay is indicative of more mass bound to the sensor, and this value is used to determine the degree of protein-antibody interaction.

human BTN1A1-ECD-Fc [4] = target: T4, human BTN1A1-ECD-Fc; assay: direct ELISA, coated BTN1A1-Fc, denatured Ag
human BTN1A1-ECD-His6 = target: T3, human BTN1A1-ECD-His6; assay: western blot after SDS-PAGE, native lanes (no DTT, no boiling) and reduced lanes (DTT, boiling)
From the text: FIG. 34—Dimer-specific binding of BTN1A1 antibody. FIG. 34 first panel from the left is an image of Coomassie blue stained SDS-PAGE gel, showing locations of monomer and dimer forms of the BTN1A1 protein in both native and reduced conditions along with a size standard. The second through fifth panels show western blots visualizing the monomer and dimer forms of the BTN1A1 protein in both native and reduced conditions using STC810, STC2602, STC2714 and STC 2781 antibody, respectively.
To determine the conformational specificity, Western blot analysis was performed using both dimer form of BTN1A1 (Fc fusion protein extracellular domain of BTN1A1) and monomer form of BTN1A1 (His-tagged protein of extracellular domain of BTN1A1). Proteins were treated with DTT (a reducing agent) and boiling or without reducing and denaturing by boiling. After running the proteins on SDS-PAGE, Western blot was performed by a standard protocol (FIG. 34). In a native condition (without a reducing agent and boiling), STC2714 recognized only Fc fusion protein, a dimerized form of BTN1A1 ECD, but not His-tagged protein, a monomer form of BTN1A1 ECD.

human BTN1A1-ECD-Fc [5] = target: T4, human BTN1A1-ECD-Fc; assay: SPR (Biacore)
Method: (§1) An mIgG capture chip (BIAcore™) was coated with antibody with 600 response units (RU) and BTN1A1-ECD was injected into the microfluidic channel. KD values were obtained using fitting tools of the BIAevaluation software (BIAcore). FIGS. 22A-F provide sensograms showing real-time binding of dimeric BTN1A1-ECD-Fc (2-64 nM with 2-fold dilution; FIGS. 22A, C, and E) or of monomeric BTN1A1-ECD-His (2-64 nM with 2-fold dilution; FIGS. 22B, D, and F) to STC703, STC810, or STC820 immobilized on an mIgG capture CMS chip. Flow cells without any immobilized protein were used as the controls for non-specific binding and control cell signals were subtracted from test cell signals to produce the sensograms shown in FIGS. 22A-F.
(§2) The KD values for BTN1A1-ECD-Fc or BTN1A1-ECD-His binding to STC703, STC810, and STC820 as measured by Biacore assays are provided in Table 17 below.

human BTN1A1-ECD-Fc [6] = target: T4, human BTN1A1-ECD-Fc; assay: SPR (Biacore), antibody on mIgG capture chip, BTN1A1-ECD-Fc 2-64 nM
Method: as §1, §2

[7] = target: T2, human BTN1A1 wild type, expressed on …; assay: FACS, 293T BTN1A1 WT against 2NQ
Method: The glyco-specificity of monoclonal anti-BTN1A1 antibodies was characterized by dot blot analysis. Each anti-BTN1A1 mAb (0.5 μg/well loaded) was tested for binding to glycosylated BTN1A1 (PNGaseF “−”) or deglycosylated BTN1A1 (PNGaseF “+”). Non-specific antibody controls (“IgG,” 0.25 μg/well loaded) was also included in the assay. As shown in FIGS. 19A-19B, both glycosylated BTN1A1 protein and non-glycosylated BTN1A1 (BTN1A1 protein treated with PNGase F) were coated on the solid phase and tested for mAb and antigen binding affinity. […] The glyco-specificity of monoclonal anti-BTN1A1 antibodies was also characterized by FACS analysis. […] After further washing, fluorescence intensity (MFI) was measured to assess relative binding of antibodies to membrane-bound glycosylated or unglycosylated BTN1A1. […] See, e.g., FIGS. 21A-C and Table 16.

Row | Kd (mouse BTN1A1-ECD-Fc) | koff (mouse BTN1A1-ECD-Fc) | kon (mouse BTN1A1-ECD-Fc) | ELISA (Native Ag) (human BTN1A1-ECD-Fc [1]) | FACS (MFI) [2] | Kd (human BTN1A1-ECD-Fc [3]) | ELISA (Denatured Ag) (human BTN1A1-ECD-Fc [4]) | Binder | other results
1 | 1.69 nM | 0.000427 s⁻¹ | 251000 M⁻¹ s⁻¹ |  |  |  |  | STC1029 (antibody, V domains shown, kappa; also called mouse monoclonal anti-mouse BTN1A1 Antibody STC1029) VH: EVQLQQSGPELVKPGASVKISCKASGYSFTGYFMNWVKQSHGKSLEWIGRINPYNGDTFYNQKFKDKATLTVDTSSSTAHMELRSLTSEESAVYYCARWTTVINFDYWGQGTTLTVSS VL: SIVMTQTPKFLLVSAGDRVTITCKASQSVSYDVVWYQQKPGQSPKLLMYYVSNRYTGVPDRFTGSGYGTDFTFTISTVQAEDLAVYFCQQDYSSPPTFGGGTKLEIK | 
2 | 4.1 nM | 0.000599 s⁻¹ | 146000 M⁻¹ s⁻¹ |  |  |  |  | STC1012 (antibody, V domains shown, kappa; pHrodo-labeled in the internalization assay; also called mouse monoclonal anti-mouse BTN1A1 antibody STC1012) VH: EVMLVESGGALVKPGGSLKLSCAASGFTFSNYVMSWVRQTPEKRLEWVATISSGGSYTNYPDSVKGRFIISRDNARNTLYLQMSSLRSEDTAIYYCVREGDGFYVFDYWGLGTTLTVSS VL: not shown | 
3 |  |  |  | 1.8 | 2340 | 0.436 nM | 1.44 | STC2778 (antibody, V domains shown) VH: QIQLVQSGPELKKPGETVKISCKASGYSFTNYGMNWVKQAPGKGLKWMGWINIYTGETTYGDDFKGRFAFSLETSASTAYLQINNLRSEDTATYFCVRGGTMIMYWGQGTTLTVSS VL: DIVLTQSPATLSVTPGDSVSLSCRASQSISNNLHWHQQKSHESPRLLIKYASQSMSGIPSRFSGSGSGTDFTLSINSVETEDFGMYFCQQSDSWPLTFGAGTKLELK | 
4 |  |  |  | 1.39 | 69.5 | 2.35 nM | 0.128 | STC2602 (antibody, V domains shown) VH: EVQLQQSGPELVKPGASVKISCKASGFSFIGYYIDWVKQSPGKSLEWIGYIYPSNGETSYHQKCKGKATLTVDKSSSTVNMQLNSLTSEDSAVYYCARYGNYDWFFDVWGAGTTVTVSS VL: QIVLTQSPAIMSASPGEKVTITCSASSSVSYMHWFQQKPGTSPKFWIYSTSNLASGVPIRFSGSGSGTSYSLTISRMEAEDAATYYCQQRSSYPYTFGGGTKLEIK | binding result (human BTN1A1-ECD-His6): no binding
5 |  |  |  | 0.956 | 841 | 0.0885 nM | 0.418 | STC2739 (antibody, V domains shown) VH: QVQLKQSGPGLVQPSQSLSITCTVSGFSLTTHGVNWVRQSPGKGLEWLGVIWSGGSTDYNAAFISRLSISKDNSKSQVFFKMNSLQANDTAIYYCARPYYYGAMDYWGQGTSVTVSS VL: QIVLTQSPSIMSASPGEKVTITCSASSSVSYIHWFQQKPGTSPKLWIYSTSNLASGVPARFSGSGSGTSYSLTISRMEAEDAATYYCQQRSIYPLTFGAGTKLELK | 
6 |  |  |  |  |  |  |  | STC810 (antibody, V domains shown, mouse monoclonal; kappa; also called mouse monoclonal anti-human BTN1A1 antibody STC810) VH: EVQLQQSGPELVKPGASVKISCKASGYTFTHYNMDWVKQSHGKSLEWIGYIYPSNGGTGYNQKFKSRATLTVDKSSSTAYMELHSLTSEDSAVYYCARGAYHYGSSYAYWYFDVWGAGTTVTVSS VL: DIQMTQTTSSLSASLGDRVTISCSASQDISNYLNWYQQKPDETVKLLISYTSSLHSGVPSRFSGSGSGTDYSLTISNLAPEDIATYYCQQSSKLPFTFGSGTELEIKR | fold higher affinity than to monomeric BTN1A1-ECD-His (human BTN1A1-ECD-Fc [5]): > 100 fold; Kd (human BTN1A1-ECD-Fc [6]): 0.92 nM; fold MFI on glycosylated over unglycosylated BTN1A1 [7]: ≥ 2 fold
